In patent US20260274928A1:

Target: 25-strain panel of pre- and post-Omicron VSV-based SARS-CoV-2 S pseudotyped viruses
Assay: cell-based or functional assay

B1: S2V29-v37.2 (antibody, V domains shown)
VH: EVQLVESGGSVVQPGRALRLSCAASGITFSSFGMYWVRQAPGKGLEWLGYIAYDGSDTYYADSVKGRFTISRDNSKNTLYLQMNSLRIEDTAVYYCAKDYYPLLSYYYGLDVWGQGTTVTVSS
VL: QSVLTQPRSVSGSPGQSVTISCTGTSSDVGAYNYVSWYQQHPGKAPKFMIYDVDQRPSGVPDRFSGSKSGNTASLIISGLQAEDEADYYCSSYAGSYIWVFGGGTQLTVL
- IC50, pseudovirus neutralization: 1.9 to 31.2 ng/mL
- median IC50, pseudovirus neutralization: 8.2 ng/mL
